Source: paper PMC9950733, “Screening and epitope characterization of diagnostic nanobody against total and activated Bacteroides fragilis toxin” (Frontiers in Immunology, 2023)

Key:
[1] = biological target: T1, recombinant Bacteroides fragilis toxin 1 (BFT1), full length without signal peptide (Bacteroides fragilis (enterotoxigenic), …); assay: ITC; Microcal ITC 200, 25°C; 20 mM Tris pH 8.0, 150 mM NaCl, 5% glycerol; nanobody (20 μM) injected into BFT solution (200 μM); one binding site mode; details: both partners purified
T1 construct: B. fragilis toxin subtype 1 (BFT1, fragilysin), zinc-dependent metallopeptidase of enterotoxigenic Bacteroides fragilis; prodomain plus catalytic domain, without the signal peptide; also called B. fragilis toxin; source: E. coli Origami-2 (DE3), purified (Ni-NTA, SEC on Superdex 75)
T1 chain: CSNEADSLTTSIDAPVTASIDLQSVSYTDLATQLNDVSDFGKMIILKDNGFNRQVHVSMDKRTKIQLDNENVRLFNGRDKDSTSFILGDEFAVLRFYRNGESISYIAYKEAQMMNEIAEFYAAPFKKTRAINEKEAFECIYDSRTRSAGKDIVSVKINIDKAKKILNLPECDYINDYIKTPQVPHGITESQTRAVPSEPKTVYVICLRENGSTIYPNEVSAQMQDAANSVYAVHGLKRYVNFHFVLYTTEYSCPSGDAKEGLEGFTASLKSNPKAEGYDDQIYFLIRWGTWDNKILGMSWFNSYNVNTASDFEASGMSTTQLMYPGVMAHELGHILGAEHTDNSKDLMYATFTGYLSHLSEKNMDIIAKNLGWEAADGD

[2] = biological target: T1, recombinant Bacteroides fragilis toxin …; assay: as above; details: both partners purified
[3] = biological target: T1, recombinant Bacteroides fragilis toxin …

B1: Nb2.37 (VHH)
VHH: QVQLQESGGGLVQPGGSLRLSCVVSRRTFDAWAMGWFRQAPGQERDFVASVNWSGDSTYYADSVKGRFTISRDNAKNTVYLQMNSLKPEDTAVYYCAALAGSYHSRTPLDDYWGQGTQVTVSS
notes: from round 2 of bio-panning; source: E. coli WK6 periplasm, purified (Ni-NTA, SEC on Superdex 75)
Kd [1]: 3.91 nM | dH [1]: -14.1 kcal/mol | stoichiometry N [2]: 1

B2: Nb3.17 (VHH)
VHH: QVQLQESGGGLVQAGDSLRLSCAASGGSFDMFAMGWFRQAPGKERERVATISWSGDRTVYADSVKGRFTISRDNTKKMLYLQMNNLKPEDTAVYYCAQIEGTHYSGSPSDHWGQGTQVTVSS
notes: from round 3 of bio-panning; source: E. coli WK6 periplasm, purified (Ni-NTA, SEC on Superdex 75)
Kd [1]: 0.66 nM | dH [1]: -20.3 kcal/mol | stoichiometry N [2]: 1

B3: Nb2.74 (VHH)
VHH: QVQLQESGGGLVQPGGSLRLSCGASGFTFNGYAMSWVRQAPGKGPEWVSGINTIGNTTYYADSVKGRFTISRDNAQNTLYLQMNSLKPEDTALYYCARKPFGSTWTEYDYRGQGTQVTVSS
binding result [3]: binds

B4: Nb3.88 (VHH)
VHH: QVQLQESGGGLVQPGGSLRLSCAASGLTFNGYAMSWVRQAPGKGPEWVSGINTIGTTTYYADSVKGRFTISRDNAKNTLYLQMNSLKPEDTALYYCARKPFGSTWSEYDYRGQGTQVTVSS
binding result [3]: binds

B5: Nb3.93 (VHH)
VHH: QVQLQESGGGLVQPGGSLRLSCAASGSTLARYHIGWFRQAPGKEREGVACISSSGDSTNYADSVKGRFTISRDNANNTVYLQMNSLKPEDTAVYYCVADPLKCILRRGGENRYLEHWGQGTQVTVSS
notes: as for B2
Kd [1]: 5.96 nM | dH [1]: -22.1 kcal/mol | stoichiometry N [2]: 1

B6: Nb3.27 (VHH)
VHH: QVQLQESGGGLVQAGGSLRLSCTYSGQTFSAWAMGWFRQAPGKERETVATINWNGERTQYADAVKGRFTISRDNAKDTVYLEMNSLKPEDTAVYYCASMMGTYYSGSPKNWGQGTQVTVSS
notes: from round 3 of bio-panning; CDR1 Gly26-Ala33, CDR2 Ile51-Thr58, CDR3 Ala97-Asn110; source: E. coli WK6 periplasm, purified (Ni-NTA, SEC on Superdex 75)
Kd [1]: 0.828 nM | dH [1]: -9.47 kcal/mol | stoichiometry N [2]: 1

B7: Nb3.61 (VHH)
VHH: QVQLQESGGGLVQPGGSLRLSCAASGFSFSSYAMTWVRQAPGKGPERVSIINPSGRTTNYADSVKGRFTISRDNAKNTLYLQMNSLKPEDTALYYCARKPPMAEEYDYRGQGTQVTVSS
binding result [3]: binds

B8: Nb3.4 (VHH)
VHH: QVQLQESGGGLVQPGGSLRLSCAASGFTFSSAAMNWVRQAPGKGPEWVSGINSSGTTTKYADSVKGRFTISRDNAKNTLYLQMNSLKPEDTAIYYCARKPLWSVGYDYWGQGTQVTVSS
notes: as for B2
Kd [1]: 3.94 nM | dH [1]: -8.4 kcal/mol | stoichiometry N [2]: 1

B9: Nb2.41 (VHH)
VHH: QVQLQESGGGLVQAGGSLRLSCASSGRTFDAWAMGWFRQAPGKEREVVATISWNGDRTYYGDSVKGRFTISRDNAKSTVALQMNNLKPEDTGVYYCAQMEGTYYSGRPSYWGQGTQVTVSS
notes: as for B1
Kd [1]: 1.37 nM | dH [1]: -20 kcal/mol | stoichiometry N [2]: 1

B10: Nb2.55 (VHH)
VHH: QVQLQESGGGLVQAGGSLRLSCVRSGHTFDAFAMGWFRQAPGKERESVATINWSGDRTYYADSAKGRFTISRDNAKNTVYLQMNSLKPEDTAVYYCAQMDGTYYSGTPSYWGQGTQVTVSS
notes: as for B1
Kd [1]: 10.6 nM | dH [1]: -10 kcal/mol | stoichiometry N [2]: 1

B11: Nb3.43 (VHH)
VHH: QVQLQESGGGLVQAGGSLRLSCARSGRTFSSFAMGWFRQAPGKEREFVATINWSGDKTSYADSVKGRFTISRDNAKNTVYLQMNSLKPEDTAVYYCAQMDGTYYSGSPGYWGQGTQVTVSS
notes: as for B2
Kd [1]: 2.01 nM | dH [1]: -9.06 kcal/mol | stoichiometry N [2]: 1

B12: Nb3.63 (VHH)
VHH: QVQLQESGGGLVQVGGSLRLSCAASGRTFGTFPMGWFRQAPGKEREFVAAISWSGTGTYYANSVKGRFTISRDNARNTVYLQMNNLKPEDTAVYSCAGRNTGRYSTTVYVEESDYGYWGQGTQVTVSS
notes: as for B2
Kd [1]: 3.37 nM | dH [1]: -18.8 kcal/mol | stoichiometry N [2]: 1

B13: Nb2.13 (VHH)
VHH: QVQLQESGGGLVQPGGSLTLSCVGSGFSLEYYAVGWFRQAPGKEREAVACISSWDGLTYLSDSVKGRFTVSRDNVKNTAYLQMNSLKPEDSAVYYCARDRARCRYYSTPNEYDEWGHGTQVTVSS
binding result [3]: binds

B14: Nb2.82 (VHH)
VHH: QVQLQESGGGLVQPGGSLRLSCAASGFTFSRYTMTWVRQAPGKGLEWVSNINSDGGRTYYADSVKGRFTISRDNTKNTLYLQMNSLKPEDTAVYYCAIPKRTYVPPSQFDDRGQGTQVTVSS
notes: from round 2 of bio-panning; CDR1 Gly26-Thr33, CDR2 Ile51-Thr58, CDR3 Ala97-Asp111; source: E. coli WK6 periplasm, purified (Ni-NTA, SEC on Superdex 75)
Kd [1]: 11.5 nM | dH [1]: -17.9 kcal/mol | stoichiometry N [2]: 1

B15: Nb2.40 (VHH)
VHH: QVQLQESGGGLVQAGGSLRLSCAYFGRTFSAWAMGWFRQAPGKERESVATINWSGERTSYADSVKGRFTISRDNAKNTVYLQMNSLKPEDTAVYYCAAMEGTYYSGKPGTWGQGTQVTVSS
notes: as for B1
Kd [1]: 8.72 nM | dH [1]: -13.5 kcal/mol | stoichiometry N [2]: 1

B16: Nb2.1 (VHH)
VHH: QVQLQESGGGLVQPEGSLRLSCVASGEFTLDYYAIGWFRQAPGKEREELSCISRTGANTNYADSVKGRFTVSRDNAKNTVYLQMNSLKPEDTANYYCAATLGVNNDCSGYVSPDVYDYWGHGTQVTVSS
binding result [3]: binds

B17: Nb2.59 (VHH)
VHH: QVQLQESGGGLVQAGGSLRLSCAFSGRTDDAQYAMGWFRQAPGKERESVGTINWSGDRTNYADSVKGRFTISRDNVKNMMYLQMNSLKPEDTAVYYCARIYGTYLSGSPGSWGQGTQVTVSS
binding result [3]: binds

B18: Nb2.50 (VHH)
VHH: QVQLQESGGGLVQAGGSLRLSCVSSGRTFDAWAMGWLRQAPGKERESVATISWSGDRTQYADSVKGRFTISRDNAKNTLFLQMNNLRPEDTAIYYCALMEGTHYSGRPGTWGRGTQVTVSS
binding result [3]: binds

B19: Nb2.14 (VHH)
VHH: QVQLQESGGGFVQTGGSLRLSCERSGTTFDSFAMGWFRQSPGKEREKVATINWSGESTSYTDSVKGRFTISRDNAKNTVYLQMNNLQPEDTAIYYCAQIAGTHYSGTPQYWGQGTQVTVSS
notes: as for B1
Kd [1]: 0.36 nM | dH [1]: -14.3 kcal/mol | stoichiometry N [2]: 1

B20: Nb3.40 (VHH)
VHH: QVQLQESGGGFVQTGGSLRLSCERSGTTFDSFAMGWFRQSPGKEREKVATINWSGESTSYTDSVKGRFTISRDNAKNTVYLQMNNLQPEDTAIYYCAQIAGTYYSGTPQYWGQGTQVTVSS
notes: as for B2
Kd [1]: 2.58 nM | dH [1]: -13.6 kcal/mol | stoichiometry N [2]: 1

B21: Nb3.74 (VHH)
VHH: QVQLQESGGGFVQTGGSLRLSCERSGTTFDSFAMGWFRQAPGKERESVGTINWSGDRTYYADSVKGRFTISRDNAKNTVYLQMKKLKPEDTAVYYCAQIRGTYLDGSPGSWGQGTQVTVSS
binding result [3]: binds

B22: Nb2.29 (VHH)
VHH: QVQLQESGGGLVQAGGSLRLSCVASGIIDNINTFGWYRQAPGKQRELVANISRWGNTNYADSSRDGFFISSEDANTTMYLLMMNLKPDDDAVYYCRAEIIGYDNGAHDYWGRGTRITVSS
notes: as for B1
Kd [1]: 1.18 nM | dH [1]: -15.5 kcal/mol | stoichiometry N [2]: 1
